# Target: non-structural protein 3 (Nsp3) ubiquitin-like domain 1 (Ubl1), 1-111
substance,measurement,value
Nucleocapsid protein (N) (from UniProt P0DTC9),other: partition coefficient,weaker; reference 12.6 ± 0.1
